According to paper PMC4131848:

Target: putative N-acetyltransferase from S. aureus subsp. aureus Mu50 (SaGNAT) (Staphylococcus aureus subsp. aureus Mu50)
Assay: SEC; Superdex 200, 50 mM Tris pH 8.0, 125 mM NaCl; elution compared with theoretical elution volumes for monomer, dimer and trimer

stoichiometry N: 2
Substance: putative N-acetyltransferase from S. aureus subsp. aureus Mu50 (SaGNAT) (enzyme)
